Results as given in patent US20200317768A1 (published 2020).

Experiments:
Test in all cases: SPR (Biacore); KD of SG1 divided by KD of the variant for this FcgR;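 further: relative to parent M103205H795-SG1 carrying the SG1 human heavy chain constant region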
[1] = target: T1, human FcγRIIaH extracellular domain with C-terminal His-tag (human, UniProt P12318 34-217)
T1 construct: Expressed in FreeStyle 293 cells and purified; also called human FcγRIIa (type H); FcgRIIaH; not shown: C-terminal His-tag
T1 sequence: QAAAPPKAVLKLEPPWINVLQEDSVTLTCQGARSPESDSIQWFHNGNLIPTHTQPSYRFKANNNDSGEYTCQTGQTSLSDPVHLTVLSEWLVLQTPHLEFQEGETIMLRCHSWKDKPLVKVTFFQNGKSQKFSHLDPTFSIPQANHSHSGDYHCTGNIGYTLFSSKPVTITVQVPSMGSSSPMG
Experimental: (§1) Regarding such interactions, KD values were calculated using the following 1:1 binding model described in BIACORE® T100 Software Handbook BR1006-48 Edition AE.
(§2) The behavior of interacting molecules according to the 1:1 binding model on BIACORE® can be described by Equation 1: Req=C·R max/(KD+C)+RI, wherein, Req is a plot of steady-state binding levels to analyte concentration. C is concentration, RI is bulk refractive index contribution in the sample, and Rmax is analyte binding capacity of the surface. When this equation is rearranged, KD can be expressed as Equation 2: KD=C·Rmax/(Req−RI)−C. KD can be calculated by substituting the values of Rmax, RI, and C into Equation 1 or Equation 2. From the current measurement conditions, RI=0, C=2 μmol/L can be used.
(§3) The variants were expressed using M103202L889-SK1 as the light chain and their affinity was analyzed.

[2] = target: T2, human FcγRIIIaV extracellular domain with C-terminal His-tag (human, UniProt P08637 17-208)
T2 construct: Expressed in FreeStyle 293 cells and purified; also called FcgRIIIaV; not shown: C-terminal His-tag
T2 sequence (P08637 17-208 F176V): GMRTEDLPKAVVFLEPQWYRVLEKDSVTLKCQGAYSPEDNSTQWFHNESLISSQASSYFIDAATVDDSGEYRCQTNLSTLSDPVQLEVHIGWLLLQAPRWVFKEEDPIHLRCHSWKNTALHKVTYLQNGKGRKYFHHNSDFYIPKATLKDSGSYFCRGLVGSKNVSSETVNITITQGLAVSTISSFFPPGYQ
Experimental: as §1, §2, §3

[3] = target: T3, cynomolgus monkey FcγRIIa1 extracellular domain with C-terminal His-tag (cynomolgus monkey)
T3 construct: Expressed in FreeStyle 293 cells and purified; also called cyno FcγRIIa1; cynoFcgRIIa1; not shown: C-terminal His-tag
T3 chain: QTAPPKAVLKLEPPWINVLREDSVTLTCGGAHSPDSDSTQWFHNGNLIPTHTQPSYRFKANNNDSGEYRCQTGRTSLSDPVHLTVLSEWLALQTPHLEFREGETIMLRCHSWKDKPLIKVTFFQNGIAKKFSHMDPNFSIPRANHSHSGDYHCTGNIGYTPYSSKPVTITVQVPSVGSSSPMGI
Experimental: as §1, §2, §3

[4] = target: T4, cynomolgus monkey FcγRIIa2 extracellular domain with C-terminal His-tag (cynomolgus monkey)
T4 construct: Expressed in FreeStyle 293 cells and purified; also called cyno FcγRIIa2; cynoFcgRIIa2; not shown: C-terminal His-tag
T4 chain: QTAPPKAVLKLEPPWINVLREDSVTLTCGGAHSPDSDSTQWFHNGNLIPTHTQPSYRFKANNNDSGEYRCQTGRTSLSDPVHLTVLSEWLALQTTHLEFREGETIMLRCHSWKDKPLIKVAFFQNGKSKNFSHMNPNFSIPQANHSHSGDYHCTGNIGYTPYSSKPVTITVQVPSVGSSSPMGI
Experimental: as §1, §2, §3

[5] = target: T5, human FcγRIIaR extracellular domain with C-terminal His-tag (human, UniProt P12318 34-217)
T5 construct: Expressed in FreeStyle 293 cells and purified; also called human FcγRIIa (type R); FcgRIIaR; not shown: C-terminal His-tag
T5 chain: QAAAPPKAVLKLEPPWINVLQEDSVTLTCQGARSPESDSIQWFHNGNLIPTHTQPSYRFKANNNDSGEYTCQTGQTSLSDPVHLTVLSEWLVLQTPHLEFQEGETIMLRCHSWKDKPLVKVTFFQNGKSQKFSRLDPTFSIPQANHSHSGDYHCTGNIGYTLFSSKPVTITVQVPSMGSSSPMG
Experimental: as §1, §2, §3

[6] = target: T6, cynomolgus monkey FcγRIIb extracellular domain with C-terminal His-tag (cynomolgus monkey)
T6 construct: Expressed in FreeStyle 293 cells and purified; also called cyno FcγRIIb; cynoFcγRIIb; not shown: C-terminal His-tag
T6 chain: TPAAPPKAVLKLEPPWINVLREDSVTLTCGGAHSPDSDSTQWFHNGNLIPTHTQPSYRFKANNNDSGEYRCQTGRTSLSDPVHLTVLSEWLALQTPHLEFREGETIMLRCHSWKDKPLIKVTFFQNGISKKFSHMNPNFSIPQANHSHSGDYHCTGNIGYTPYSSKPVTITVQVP
Experimental: as §1, §2, §3

[7] = target: T7, cynomolgus monkey FcγRIIa3 extracellular domain with C-terminal His-tag (cynomolgus monkey)
T7 construct: Expressed in FreeStyle 293 cells and purified; also called cyno FcγRIIa3; cynoFcgRIIa3; not shown: C-terminal His-tag
T7 chain: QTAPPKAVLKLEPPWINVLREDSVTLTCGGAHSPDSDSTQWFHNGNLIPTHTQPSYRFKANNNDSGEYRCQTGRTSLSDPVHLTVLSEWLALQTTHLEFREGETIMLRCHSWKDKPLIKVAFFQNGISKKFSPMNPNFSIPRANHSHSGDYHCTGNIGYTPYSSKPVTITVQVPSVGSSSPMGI
Experimental: as §1, §2, §3

[8] = target: T8, human FcγRIIb extracellular domain with C-terminal His-tag (human, UniProt P31994 43-217)
T8 construct: Expressed in FreeStyle 293 cells and purified; also called humanFcgRIIb; not shown: C-terminal His-tag
T8 sequence: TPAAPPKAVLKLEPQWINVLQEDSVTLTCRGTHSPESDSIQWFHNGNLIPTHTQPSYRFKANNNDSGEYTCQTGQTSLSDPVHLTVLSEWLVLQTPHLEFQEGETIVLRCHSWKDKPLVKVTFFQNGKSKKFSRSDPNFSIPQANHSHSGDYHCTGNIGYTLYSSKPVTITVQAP
Experimental: as §1, §2, §3

[9] = target: T9, cynomolgus monkey FcγRIIIaS extracellular domain with C-terminal His-tag (cynomolgus monkey, UniProt Q8SPW2 21-206 at identity 1.00))
T9 construct: Expressed in FreeStyle 293 cells and purified; also called cyno FcγRIIIaS; cynoFcγRIIIaS; not shown: C-terminal His-tag
T9 chain: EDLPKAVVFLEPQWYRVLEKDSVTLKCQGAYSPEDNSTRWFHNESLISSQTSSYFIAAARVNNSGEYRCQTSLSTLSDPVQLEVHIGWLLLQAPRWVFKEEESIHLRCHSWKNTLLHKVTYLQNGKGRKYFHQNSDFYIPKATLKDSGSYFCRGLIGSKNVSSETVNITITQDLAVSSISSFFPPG
Experimental: as §1, §2, §3

B1: M103205H795-MY198 / M103202L889-SK1 (antibody, human IgG1, kappa)
heavy: QVTLKESGPVLVKPTETLTLTCTVSGIDLSHDDISWVRQAPGKGLEWVGIISYAGSTYYASWAKGRLTISKDTSKNQVVLTMTNMDPVDTATYYCARGVPAYSHGGDLWGQGTLVTVSSASTKGPSVFPLAPSSKSTSGGTAALGCLVKDYFPEPVTVSWNSGALTSGVHTFPAVLQSSGLYSLSSVVTVPSSSLGTQTYICNVNHKPSNTKVDKKVEPKSCDKTHTCPPCPAPELLNGPVVFLFPPKPKDTLMISRTPEVTCVVVDVSDEDPEVKFNWYVDGVEVHNAKTKPREEQYNSTYRVVSVLTVLHQDWLNGKEYKCKVSNKALPKPIEKTISKAKGQPREPQVYTLPPSREEMTKNQVSLTCLVKGFYPSDIAVEWESNGQPENNYKTTPMVLDSDGSFFLYSKLTVDKSRWQQGNVFSCSVMHEALHNHYTQKSLSLSP
light: DIVMTQSPATLSLSPGERATLSCTSSQSVYHANWLSWFQQKPGQPPKLLIYWASTLAYGVPSRFSGSGSGTDFTLTISSLQPEDAATYYCAGGYGGGRYAFGQGTKVEIKRTVAAPSVFIFPPSDEQLKSGTASVVCLLNNFYPREAKVQWKVDNALQSGNSQESVTEQDSKDSTYSLSSTLTLSKADYEKHKVYACEVTHQGLSSPVTKSFNRGEC
notes: Fc variant of M103205H795-SG1, expressed with M103202L889-SK1 as light chain
KD fold (SG1 = 1) [1]: 1.3 fold | KD fold (SG1 = 1) [2]: 0.12 fold | KD fold (SG1 = 1) [3]: 7.3 fold | KD fold (SG1 = 1) [4]: 15.5 fold | KD fold (SG1 = 1) [5]: 1.4 fold | KD fold (SG1 = 1) [6]: 7.5 fold | KD fold (SG1 = 1) [7]: 12.1 fold | KD fold (SG1 = 1) [8]: 11 fold | KD fold (SG1 = 1) [9]: 0.18 fold

B2: M103205H795-MY199 / M103202L889-SK1 (antibody, human IgG1, kappa)
heavy: QVTLKESGPVLVKPTETLTLTCTVSGIDLSHDDISWVRQAPGKGLEWVGIISYAGSTYYASWAKGRLTISKDTSKNQVVLTMTNMDPVDTATYYCARGVPAYSHGGDLWGQGTLVTVSSASTKGPSVFPLAPSSKSTSGGTAALGCLVKDYFPEPVTVSWNSGALTSGVHTFPAVLQSSGLYSLSSVVTVPSSSLGTQTYICNVNHKPSNTKVDKKVEPKSCDKTHTCPPCPAPELLNGPSVFLFPPKPKDTLMISRTPEVTCVVVDVSEEDPEVKFNWYVDGVEVHNAKTKPREEQYNSTYRVVSVLTVLHQDWLNGKEYKCKVSNKALPKPIEKTISKAKGQPREPQVYTLPPSREEMTKNQVSLTCLVKGFYPSDIAVEWESNGQPENNYKTTPPVLDSDGSFFLYSKLTVDKSRWQQGNVFSCSVMHEALHNHYTQKSLSLSP
light: DIVMTQSPATLSLSPGERATLSCTSSQSVYHANWLSWFQQKPGQPPKLLIYWASTLAYGVPSRFSGSGSGTDFTLTISSLQPEDAATYYCAGGYGGGRYAFGQGTKVEIKRTVAAPSVFIFPPSDEQLKSGTASVVCLLNNFYPREAKVQWKVDNALQSGNSQESVTEQDSKDSTYSLSSTLTLSKADYEKHKVYACEVTHQGLSSPVTKSFNRGEC
notes: as for B1
KD fold (SG1 = 1) [1]: 0.6 fold | KD fold (SG1 = 1) [2]: 0.06 fold | KD fold (SG1 = 1) [3]: 1.7 fold | KD fold (SG1 = 1) [4]: 2.6 fold | KD fold (SG1 = 1) [5]: 0.4 fold | KD fold (SG1 = 1) [6]: 1.6 fold | KD fold (SG1 = 1) [7]: 1.4 fold | KD fold (SG1 = 1) [8]: 2.4 fold | KD fold (SG1 = 1) [9]: 0.09 fold

B3: M103205H795-MY200 / M103202L889-SK1 (antibody, human IgG1, kappa)
heavy: QVTLKESGPVLVKPTETLTLTCTVSGIDLSHDDISWVRQAPGKGLEWVGIISYAGSTYYASWAKGRLTISKDTSKNQVVLTMTNMDPVDTATYYCARGVPAYSHGGDLWGQGTLVTVSSASTKGPSVFPLAPSSKSTSGGTAALGCLVKDYFPEPVTVSWNSGALTSGVHTFPAVLQSSGLYSLSSVVTVPSSSLGTQTYICNVNHKPSNTKVDKKVEPKSCDKTHTCPPCPAPELLNGPVVFLFPPKPKDTLMISRTPEVTCVVVDVSEEDPEVKFNWYVDGVEVHNAKTKPREEQYNSTYRVVSVLTVLHQDWLNGKEYKCKVSNKALPKPIEKTISKAKGQPREPQVYTLPPSREEMTKNQVSLTCLVKGFYPSDIAVEWESNGQPENNYKTTPPVLDSDGSFFLYSKLTVDKSRWQQGNVFSCSVMHEALHNHYTQKSLSLSP
light: DIVMTQSPATLSLSPGERATLSCTSSQSVYHANWLSWFQQKPGQPPKLLIYWASTLAYGVPSRFSGSGSGTDFTLTISSLQPEDAATYYCAGGYGGGRYAFGQGTKVEIKRTVAAPSVFIFPPSDEQLKSGTASVVCLLNNFYPREAKVQWKVDNALQSGNSQESVTEQDSKDSTYSLSSTLTLSKADYEKHKVYACEVTHQGLSSPVTKSFNRGEC
notes: as for B1
KD fold (SG1 = 1) [1]: 0.4 fold | KD fold (SG1 = 1) [2]: 0.05 fold | KD fold (SG1 = 1) [3]: 1.9 fold | KD fold (SG1 = 1) [4]: 3.4 fold | KD fold (SG1 = 1) [5]: 0.4 fold | KD fold (SG1 = 1) [6]: 1.6 fold | KD fold (SG1 = 1) [7]: 3.4 fold | KD fold (SG1 = 1) [8]: 3.3 fold | KD fold (SG1 = 1) [9]: 0.08 fold

B4: M103205H795-MY209 / M103202L889-SK1 (antibody, human IgG1, kappa)
heavy: QVTLKESGPVLVKPTETLTLTCTVSGIDLSHDDISWVRQAPGKGLEWVGIISYAGSTYYASWAKGRLTISKDTSKNQVVLTMTNMDPVDTATYYCARGVPAYSHGGDLWGQGTLVTVSSASTKGPSVFPLAPSSKSTSGGTAALGCLVKDYFPEPVTVSWNSGALTSGVHTFPAVLQSSGLYSLSSVVTVPSSSLGTQTYICNVNHKPSNTKVDKKVEPKSCDKTHTCPPCPAPELLNGPSVFLFPPKPKDTLMISRTPEVTCVVVDVSDEDPEVKFNWYVDGVEVHNAKTKPREELYNSTYRVVSVLTVLHQDWLNGKEYKCKVSNTALPKPIEKTISKAKGQPREPQVYTLPPSREEMTKNQVSLTCLVKGFYPSDIAVEWESNGQPENNYKTTPPVLDSDGSFFLYSKLTVDKSRWQQGNVFSCSVMHEALHNHYTQKSLSLSP
light: DIVMTQSPATLSLSPGERATLSCTSSQSVYHANWLSWFQQKPGQPPKLLIYWASTLAYGVPSRFSGSGSGTDFTLTISSLQPEDAATYYCAGGYGGGRYAFGQGTKVEIKRTVAAPSVFIFPPSDEQLKSGTASVVCLLNNFYPREAKVQWKVDNALQSGNSQESVTEQDSKDSTYSLSSTLTLSKADYEKHKVYACEVTHQGLSSPVTKSFNRGEC
notes: as for B1
KD fold (SG1 = 1) [1]: 1.2 fold | KD fold (SG1 = 1) [2]: 0.06 fold | KD fold (SG1 = 1) [3]: 5.1 fold | KD fold (SG1 = 1) [4]: 7.4 fold | KD fold (SG1 = 1) [5]: 1.3 fold | KD fold (SG1 = 1) [7]: 5.9 fold | KD fold (SG1 = 1) [8]: 9.2 fold | KD fold (SG1 = 1) [9]: 0.16 fold
